Laboratory results: patent US20250177453A1 (Harvard, published 2025)

Molecular target: T1, human PD-L1 expressed on the surface of SC-islet cells (human, UniProt Q9NZQ7 19-290)
T1 construct: whole, on cells; also called PD-L1 on B2P SC-islet cells
Assay: flow cytometry, labelled PD-1-Fc on dissociated SC-islet cells

T1 sequence (Q9NZQ7 19-290): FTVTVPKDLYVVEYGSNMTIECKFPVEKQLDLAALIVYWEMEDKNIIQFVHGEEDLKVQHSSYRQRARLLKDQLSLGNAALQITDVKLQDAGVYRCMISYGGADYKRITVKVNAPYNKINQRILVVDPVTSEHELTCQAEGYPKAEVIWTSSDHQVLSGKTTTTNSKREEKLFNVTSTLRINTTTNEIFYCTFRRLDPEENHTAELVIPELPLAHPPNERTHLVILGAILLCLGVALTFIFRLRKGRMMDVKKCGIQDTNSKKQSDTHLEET

- binding result: binds
B1: PE-conjugated mouse PD1-Fc (Fc fusion, UniProt Q02242 25-167, looked up)
chain: LEVPNGPWRSLTFYPAWLTVSEGANATFTCSLSNWSEDLMLNWNRLSPSNQTEKQAAFCNGLSQPVQDARFQIIQLPNRHDFHMNILDTRRNDSGIYLCGAISLHPKAKIEESPGAELVVTERILETSTRYPSPSPKPEGRFQ
modifications: PE-conjugated (fluorescently labelled)
notes: It says only 'fluorescently labelled, soluble' PD-1-Fc; also called soluble mouse PD-1-Fc; soluble mouse PD-1; not shown: Fc part
